{"source": "patent US20160319041", "molecules": {"B1": {"name": "clostripain (protein)", "chain": "NKNQKVTIMYYCDADNNLEGSLLNDIEEMKTGYKDSPNLNLIALVDRSPRYSSDEKVLGEDFSDTRLYKIEHNKANRLDGKNEFPEISTTSKYEANMGDPEVLKKFIDYCKSNYEADKYVLIMANHGGGAREKSNPRLNRAICWDDSNLDKNGEADCLYMGEISDHLTEKQSVDLLAFDACLMGTAEVAYQYRPGNGGFSADTLVASSPVVWGPGFKYDKIFDRIKAGGGTNNEDDLTLGGKEQNFDPATITNEQLGALFVEEQRDSTHANGRYDQHLSFYDLKKAESVKRAIDNLAVNLSNENKKSEIEKLRGSGIHTDLMHYFDEYSEGEWVEYPYFDVYDLCEKINKSENFSSKTKDLASNAMNKLNEMIVYSFGDPSNNFKEGKNGLSIFLPNGDKKYSTYYTSTKIPHWTMQSWYNSIDTVKYGLNPYGKLSWCKDGQDPEINKVGNWFELLDSWFDKTNDVTGGVNHYQW"}}, "key": {"[1]": {"system": "T1, rNFH-SA (engineered protein with residues 426-1066 of the rat NF-H sidearm domain, N-terminal tetra-Cys tag, C-terminal poly-His-Asn tag)", "T1 sequence": "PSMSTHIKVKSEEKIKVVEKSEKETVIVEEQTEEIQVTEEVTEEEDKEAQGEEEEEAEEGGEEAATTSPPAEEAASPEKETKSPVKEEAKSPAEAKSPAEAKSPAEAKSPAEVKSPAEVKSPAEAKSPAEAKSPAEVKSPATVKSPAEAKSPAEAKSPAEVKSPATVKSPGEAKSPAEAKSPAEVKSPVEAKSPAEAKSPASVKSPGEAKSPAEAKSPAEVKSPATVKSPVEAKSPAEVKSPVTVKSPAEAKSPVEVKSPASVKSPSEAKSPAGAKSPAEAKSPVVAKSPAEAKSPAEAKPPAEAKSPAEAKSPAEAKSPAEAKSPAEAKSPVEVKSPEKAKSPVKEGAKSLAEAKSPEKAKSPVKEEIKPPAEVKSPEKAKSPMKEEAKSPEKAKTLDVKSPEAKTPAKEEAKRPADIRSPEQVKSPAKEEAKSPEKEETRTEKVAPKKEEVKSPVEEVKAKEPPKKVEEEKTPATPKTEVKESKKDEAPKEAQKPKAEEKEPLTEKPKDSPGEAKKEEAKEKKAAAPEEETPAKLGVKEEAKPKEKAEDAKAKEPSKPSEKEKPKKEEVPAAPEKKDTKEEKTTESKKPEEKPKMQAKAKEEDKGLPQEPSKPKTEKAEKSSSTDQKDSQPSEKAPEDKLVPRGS"}, "[2]": {"molecular_target": "T2, rNFH-SA (engineered protein with residues 426-1066 of the rat NF-H sidearm domain, N-terminal tetra-Cys tag, C-terminal poly-His-Asn tag)", "T2 chain": "T1 sequence"}}}
{"molecule": "thrombin", "values": [{"measurement": "loss of HN-tag immunofluorescence; brush height by AFM", "setting": "[1]", "value": "addition of thrombin produced a loss of fluorescence (indicating successful enzymatic cleavage) without producing a significant change in brush height by AFM"}]}
{"molecule": "B1", "values": [{"measurement": "loss of HN-tag immunofluorescence", "setting": "[2]", "value": "addition of clostripain produced the same loss of fluorescence"}, {"measurement": "reduction of brush height by AFM", "setting": "[2]", "value": "reducing brush height by 20%"}]}
